Laboratory results from article PMC8826823, “The Zinc Finger Transcription Factor BbCmr1 Regulates Conidium Maturation in Beauveria bassiana”.

What was measured:
[1] = target: T1, BbBrlA (Beauveria bassiana, UniProt J5JC27 1-370); assay: EMSA; shift lost with 200-fold unlabeled probe; LightShift Chemiluminescent EMSA kit, manufacturer's instructions; buffer, salt, pH and temperature not given; conditions: protein: recombinant; tags: GST; label: biotin; blunt
T1 sequence: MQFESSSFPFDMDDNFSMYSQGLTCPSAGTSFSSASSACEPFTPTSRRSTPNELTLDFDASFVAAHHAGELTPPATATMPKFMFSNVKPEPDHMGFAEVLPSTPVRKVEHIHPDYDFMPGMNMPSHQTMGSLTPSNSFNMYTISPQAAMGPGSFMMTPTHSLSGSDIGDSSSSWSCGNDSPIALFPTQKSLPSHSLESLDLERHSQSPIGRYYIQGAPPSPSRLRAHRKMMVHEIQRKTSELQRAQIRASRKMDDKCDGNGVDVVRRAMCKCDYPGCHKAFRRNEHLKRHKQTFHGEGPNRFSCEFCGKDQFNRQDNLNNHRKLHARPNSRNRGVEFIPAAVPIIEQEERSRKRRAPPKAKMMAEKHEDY

[2] = target: T2, BbCmr1 (Beauveria bassiana, UniProt J4VZG7 1-764); assay: EMSA; 0.5-2 ug protein, 10 ng probe; concentration-dependent; complex decreased by 200-800-fold unlabeled probe; LightShift Chemiluminescent EMSA kit, manufacturer's instructions; buffer, salt, pH and temperature not given; conditions: protein: recombinant; tags: N-terminal GST (pGEX-6p); chain copies: 2; label: biotin; blunt
T2 sequence: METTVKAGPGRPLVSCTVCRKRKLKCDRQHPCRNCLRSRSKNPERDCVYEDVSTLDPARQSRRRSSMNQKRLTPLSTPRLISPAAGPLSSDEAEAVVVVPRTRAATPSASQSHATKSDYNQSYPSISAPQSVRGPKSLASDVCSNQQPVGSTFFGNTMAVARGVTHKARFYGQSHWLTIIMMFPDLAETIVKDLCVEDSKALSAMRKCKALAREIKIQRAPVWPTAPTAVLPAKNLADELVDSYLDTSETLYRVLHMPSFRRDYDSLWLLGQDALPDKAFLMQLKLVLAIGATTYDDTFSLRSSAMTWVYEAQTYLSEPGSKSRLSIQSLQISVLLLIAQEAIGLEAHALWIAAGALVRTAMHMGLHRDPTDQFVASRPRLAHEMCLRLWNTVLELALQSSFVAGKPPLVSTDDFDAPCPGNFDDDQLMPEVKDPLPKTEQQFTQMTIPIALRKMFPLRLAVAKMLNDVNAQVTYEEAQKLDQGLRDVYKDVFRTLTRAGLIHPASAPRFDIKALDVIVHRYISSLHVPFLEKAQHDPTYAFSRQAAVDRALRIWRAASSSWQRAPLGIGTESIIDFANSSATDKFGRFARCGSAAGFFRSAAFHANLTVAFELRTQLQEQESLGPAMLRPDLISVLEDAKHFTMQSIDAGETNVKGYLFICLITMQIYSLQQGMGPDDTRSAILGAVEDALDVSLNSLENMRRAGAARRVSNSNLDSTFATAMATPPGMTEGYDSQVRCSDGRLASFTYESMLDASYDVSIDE

B1: Bbcmr1 promoter probe (cmr1-EMSA) (dsDNA)
DNA 1: CGGAATTACGATATTACCCCTAGAGACAATTTTTATTATA
DNA 2: TATAATAAAAATTGTCTCTAGGGGTAATATCGTAATTCCG
Q: Does B1 bind [1]?
A: binds

B2: BbbrlA promoter probe (brlA-EMSA) (dsDNA)
DNA 1: GGAAAAAAAAAAAAGAAAAGGAACCCACAACTCAAGTCT
DNA 2: AGACTTGAGTTGTGGGTTCCTTTTCTTTTTTTTTTTTCC
Q: Does B2 bind [2]?
A: binds
